According to patent publication US20250215059A1 (REGENTS OF THE UNIVERSITY OF COLORADO A BODY CORPORATE, published 2025):

Assays:
[1] = target: T1, tau aggregates in HEK293 tau biosensor cells (4R repeat domain of tau (K18) with the P301S mutation fused to … (UniProt P10636-8 244-372)); assay: cell-based or functional assay
[2] = target: T1, tau aggregates in HEK293 tau biosensor …; assay: Halo (JF646) imaging in seeded HEK293 tau biosensor cells

T1 sequence (P10636 561-689 P618S): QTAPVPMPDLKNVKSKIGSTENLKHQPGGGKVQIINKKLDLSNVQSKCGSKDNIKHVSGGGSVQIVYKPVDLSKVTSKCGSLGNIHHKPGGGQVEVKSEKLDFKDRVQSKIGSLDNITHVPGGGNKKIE

B1: 42-polyserine-TNPO3-halo (other)
chain: MEGAKPTLQLVYQAVQALYHDPDPSGKERASFWLGELQRSVHAWEISDQLLQIRQDVESCYFAAQTMKMKIQTSFYELPTDSHASLRDSLLTHIQNLKDLSPVIVTQLALAIADLALQMPSWKGCVQTLVEKYSNDVTSLPFLLEILTVLPEEVHSRSLRIGANRRTEIIEDLAFYSSTVVSLLMTCVEKAGTDEKMLMKVFRCLGSWFNLGVLDSNFMANNKLLALLFEVLQQDKTSSNLHEAASDCVCSALYAIENVETNLPLAMQLFQGVLTLETAYHMAVAREDLDKVLNYCRIFTELCETFLEKIVCTPGQGLGDLRTLELLLICAGHPQYEVVEISFNFWYRLGEHLYKTNDEVIHGIFKAYIQRLLHALARHCQLEPDHEGVPEETDDFGEFRMRVSDLVKDLIFLIGSMECFAQLYSTLKEGNPPWEVTEAVLFIMAAIAKSVDPENNPTLVEVLEGVVRLPETVHTAVRYTSIELVGEMSEVVDRNPQFLDPVLGYLMKGLCEKPLASAAAKAIHNICSVCRDHMAQHFNGLLEIARSLDSFLLSPEAAVGLLKGTALVLARLPLDKITECLSELCSVQVMALKKLLSQEPSNGISSDPTVFLDRLAVIFRHTNPIVENGQTHPCQKVIQEIWPVLSETLNKHRADNRIVERCCRCLRFAVRCVGKGSAALLQPLVTQMVNVYHVHQHSCFLYLGSILVDEYGMEEGCRQGLLDMLQALCIPTFQLLEQQNGLQNHPDTVDDLFRLATRFIQRSPVTLLRSQVVIPILQWAIASTTLDHRDANCSVMRFLRDLIHTGVANDHEEDFELRKELIGQVMNQLGQQLVSQLLHTCCFCLPPYTLPDVAEVLWEIMQVDRPTFCRWLENSLKGLPKETTVGAVTVTHKQLTDFHKQVTSAEECKQVCWALRDFTRLFRGTELGSTSPVWWNSADISSSSSSSSSSSSSSSSSSSSSSSSSSSSSSSSSSSSSSSSSSGGSGGSGGGSEIGTGFPFDPHYVEVLGERMHYVDVGPRDGTPVLFLHGNPTSSYVWRNIIPHVAPTHRCIAPDLIGMGKSDKPDLGYFFDDHVRFMDAFIEALGLEEVVLVIHDWGSALGFHWAKRNPERVKGIAFMEFIRPIPTWDEWPEFARETFQAFRTTDVGRKLIIDQNVFIEGTLPMGVVRPLTEVEMDHYREPFLNPVDREPLWRFPNELPIAGEPANIVALVEEYMDWLHQSPVPKLLFWGTPGVLIPPAEAARLAKSLPNCKAVDIGPGLNLLQEDNPDLIGSEIARWLSTLEISG
tau aggregation by flow cytometry (FRET+ cells and integrated FRET density, normalized to no insert Halo) [1]: ~50 % decrease

B2: SRRM2_6-Halo (other)
chain: MYNGIGLPTPRGSGTNGYVQRNLSLVRGRRGERPDYKGEEELRRLEAALVKRPNPDILDHERKRRVELRCLELEEMMEEQGYEEQQIQEKVATFRLMLLEKDVNPGGKEETPGQRPAVTETHQLAELNEKKNERLRAAFGISDSYVDGSSFDPQRRAREAKQPAPEPPKPYSLVRESSSSRSPTPKQKKKKKKKDRGRRSESSSPRRERKKSSKKKKHRSESESKKRKHRSPTPKSKRKSKDKKRKRSRSTTPAPKSRRAHRSTSADSASSSDTSRSRSRSAAAKTHTTALAGRSPSPASGRRGEGDAPFSEPGTTSTQRPSSPETATKQPSSPYEDKDKDKKEKSATRPSPSPERSSTGPEPPAPTPLLAERHGGSPQPLATTPLSQEPVNPPSEASPTRDRSPPKSPEKLPQSSSSESSPPSPQPTKVSRHASSSPESPKPAPAPGSHREISSSPTSKNRSHGRAKRDKSHSHTPSRRMGRSRSPATAKRGRSRSRTPTKRGHSRSRSPQWRRSRSAQRWGRSRSPQRRGRSRSPQRPGWSRSRNTQRRGRSRSARMAEIGTGFPFDPHYVEVLGERMHYVDVGPRDGTPVLFLHGNPTSSYVWRNIIPHVAPTHRCIAPDLIGMGKSDKPDLGYFFDDHVRFMDAFIEALGLEEVVLVIHDWGSALGFHWAKRNPERVKGIAFMEFIRPIPTWDEWPEFARETFQAFRTTDVGRKLIIDQNVFIEGTLPMGVVRPLTEVEMDHYREPFLNPVDREPLWRFPNELPIAGEPANIVALVEEYMDWLHQSPVPKLLFWGTPGVLIPPAEAARLAKSLPNCKAVDIGPGLNLLQEDNPDLIGSEIARWLSTLEISG
modifications: JF646 Halo ligand covalently bound to the Halo tag
notes: also called truncation 6
binding result [2]: no binding

B3: SRRM2_4-Halo (other)
chain: MYNGIGLPTPRGSGTNGYVQRNLSLVRGRRGERPDYKGEEELRRLEAALVKRPNPDILDHERKRRVELRCLELEEMMEEQGYEEQQIQEKVATFRLMLLEKDVNPGGKEETPGQRPAVTETHQLAELNEKKNERLRAAFGISDSYVDGSSFDPQRRAREAKQPAPEPPKPYSLVRESSSSRSPTPKQKKKKKKKDRGRRSESSSPRRERKKSSKKKKHRSESESKKRKHRSPTPKSKRKSKDKKRKRSRSTTPAPKSRRAHRSTSADSASSSDTSRSRSRSAAAKTHTTALAGRSPSPASGRRGEGDAPFSEPGTTSTQRPSSPETATKQPSSPYEDKDKDKKEKSATRPSPSPERSSTGPEPPAPTPLLAERHGGSPQPLATTPLSQEPVNPPSEASPTRDRSPPKSPEKLPQSSSSESSPPSPQPTKVSRHASSSPESPKPAPAPGSHREISSSPTSKNRSHGRAKRDKSHSHTPSRRMGRSRSPATAKRGRSRSRTPTKRGHSRSRSPQWRRSRSAQRWGRSRSPQRRGRSRSPQRPGWSRSRNTQRRGRSRSARRGRSHSRSPATRGRSRSRTPARRGRSRSRTPARRRSRSRTPTRRRSRSRTPARRGRSRSRTPARRRSRTRSPVRRRSRSRSPARRSGRSRSRTPARRGRSRSRTPARRGRSRSRTPARRSGRSRSRTPARRGRSRSRTPRRGRSRSRSLVRRGRSHSRTPQRRGRSGSSSERKNKSRTSQRRSRSNSSPEMKKSRISSRRSRSLSSPRSKAKSRLSLRRSLSGSSPCPKQKSQTPPRRSRSGSSQPKAKSRTPPRRSRSSSSPPPKQKSKTPSRQSHSSSSPHPKVKSGTPPRQGSITSPQANEQSVTPQRRSCFESSPDPELKSRTPSRHSCSGSSPPRVKSSTPPRQSPSRSSSPQPKVKAIISPRQRSHSGSSSPSPSRVTSRTTPRRSRSVSPCSNVESRLLPRYSHSGSSSPDTKVKPETPPRQSHSGSISPYPKVKAQTPPGPSLSGSKSPCPQEKSKDSLVQSCPGSLSLCAGVKSSTPPGESYFGVSSLQLKGQSQTSPDHRSDTSSPEVRQSHSESPSLQSKSQTSPKGGRSRSSSPVTELASRSPIRQDRGEFSASPMLKSGMSPEQSRFQSDSSSYPTVDSNSLLGQSRLETAESKEKMALPPQEDATASPPRQKDKFSPFPVQDRPESSLVFKDTLRTPPRERSGAGSSPETKEQNSALPTSSQDEELMEVVEKSEEPAGQILSHLSSELKEMSTSNFESSPEVEERPAVSLTLDQSQSQASLEAVEVPSMASSWGGPHFSPEHKELSNSPLRENSFGSPLEFRNSGPLGTEMNTGFSSEVKEDLNGPFMAEIGTGFPFDPHYVEVLGERMHYVDVGPRDGTPVLFLHGNPTSSYVWRNIIPHVAPTHRCIAPDLIGMGKSDKPDLGYFFDDHVRFMDAFIEALGLEEVVLVIHDWGSALGFHWAKRNPERVKGIAFMEFIRPIPTWDEWPEFARETFQAFRTTDVGRKLIIDQNVFIEGTLPMGVVRPLTEVEMDHYREPFLNPVDREPLWRFPNELPIAGEPANIVALVEEYMDWLHQSPVPKLLFWGTPGVLIPPAEAARLAKSLPNCKAVDIGPGLNLLQEDNPDLIGSEIARWLSTLEISG
modifications: JF646 Halo ligand covalently bound to the Halo tag
notes: also called truncation 4
binding result [2]: no binding

B4: SRRM2_7-Halo (other)
chain: MYNGIGLPTPRGSGTNGYVQRNLSLVRGRRGERPDYKGEEELRRLEAALVKRPNPDILDHERKRRVELRCLELEEMMEEQGYEEQQIQEKVATFRLMLLEKDVNPGGKEETPGQRPAVTETHQLAELNEKKNERLRAAFGISDSYVDGSSFDPQRRAREAKQPAPEPPKPYSLVRESSSSRSPTPKQKKKKKKKDRGRRSESSSPRRERKKSSKKKKHRSESESKKRKHRSPTPKSKRKSKDKKRKRSRSTTPAPKSRRAHRSTSADSASSSDTSRSRSRSAAAKTHTTALAGRSPSPASGRRGEGDAPFSEPGTTSTQRPSSPETATKQPSSPYEDKDKDKKEKSATRPSPSPERSSTGPEPPAPTPLLAERHGGSPQPLATTPLSQEPVNPPSEASPTRDRSPPKSPEKLPQSSSSESSPPSPQPTKVMAEIGTGFPFDPHYVEVLGERMHYVDVGPRDGTPVLFLHGNPTSSYVWRNIIPHVAPTHRCIAPDLIGMGKSDKPDLGYFFDDHVRFMDAFIEALGLEEVVLVIHDWGSALGFHWAKRNPERVKGIAFMEFIRPIPTWDEWPEFARETFQAFRTTDVGRKLIIDQNVFIEGTLPMGVVRPLTEVEMDHYREPFLNPVDREPLWRFPNELPIAGEPANIVALVEEYMDWLHQSPVPKLLFWGTPGVLIPPAEAARLAKSLPNCKAVDIGPGLNLLQEDNPDLIGSEIARWLSTLEISG
modifications: JF646 Halo ligand covalently bound to the Halo tag
notes: also called truncation 7
binding result [2]: no binding

B5: SRRM2_5-Halo (other)
chain: MYNGIGLPTPRGSGTNGYVQRNLSLVRGRRGERPDYKGEEELRRLEAALVKRPNPDILDHERKRRVELRCLELEEMMEEQGYEEQQIQEKVATFRLMLLEKDVNPGGKEETPGQRPAVTETHQLAELNEKKNERLRAAFGISDSYVDGSSFDPQRRAREAKQPAPEPPKPYSLVRESSSSRSPTPKQKKKKKKKDRGRRSESSSPRRERKKSSKKKKHRSESESKKRKHRSPTPKSKRKSKDKKRKRSRSTTPAPKSRRAHRSTSADSASSSDTSRSRSRSAAAKTHTTALAGRSPSPASGRRGEGDAPFSEPGTTSTQRPSSPETATKQPSSPYEDKDKDKKEKSATRPSPSPERSSTGPEPPAPTPLLAERHGGSPQPLATTPLSQEPVNPPSEASPTRDRSPPKSPEKLPQSSSSESSPPSPQPTKVSRHASSSPESPKPAPAPGSHREISSSPTSKNRSHGRAKRDKSHSHTPSRRMGRSRSPATAKRGRSRSRTPTKRGHSRSRSPQWRRSRSAQRWGRSRSPQRRGRSRSPQRPGWSRSRNTQRRGRSRSARRGRSHSRSPATRGRSRSRTPARRGRSRSRTPARRRSRSRTPTRRRSRSRTPARRGRSRSRTPARRRSRTRSPVRRRSRSRSPARRSGRSRSRTPARRGRSRSRTPARRGRSRSRTPARRSGRSRSRTPARRGRSRSRTPRRGRSRSRSLVRRGRSHSRTPQRRGRSGSSSERKNKSRTSQRRSRSNSSPEMKKSRISSRRSRSLSSPRSKAKSRLSLRRSLSGSSPCPKQKSQTPPRRSRSGSSQPKMAEIGTGFPFDPHYVEVLGERMHYVDVGPRDGTPVLFLHGNPTSSYVWRNIIPHVAPTHRCIAPDLIGMGKSDKPDLGYFFDDHVRFMDAFIEALGLEEVVLVIHDWGSALGFHWAKRNPERVKGIAFMEFIRPIPTWDEWPEFARETFQAFRTTDVGRKLIIDQNVFIEGTLPMGVVRPLTEVEMDHYREPFLNPVDREPLWRFPNELPIAGEPANIVALVEEYMDWLHQSPVPKLLFWGTPGVLIPPAEAARLAKSLPNCKAVDIGPGLNLLQEDNPDLIGSEIARWLSTLEISG
modifications: JF646 Halo ligand covalently bound to the Halo tag
notes: also called truncation 5
binding result [2]: no binding
